Reference: patent publication US20170247448A1 (INTRINSIC LIFESCIENCES, published 2017)
Ends that are not written are not given here.

Legend:
[1] = molecular target: T1, K18-biotin hepcidin-25 (human, K18-biotin (biotin on Lys 18)); assay: SPR (Biacore 3000, CM5 chip, 25 °C): biotinylated peptide captured on immobilised neutravidin, MAb 583 injected at 5 µg/ml (33.5 nM per the table); column head 'Ka (1/Ms)'
T1 construct: also called K18-biotin hepcidin-25 tracer
T1 peptide: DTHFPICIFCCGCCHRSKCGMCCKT

[2] = molecular target: T2, NT-biotin hepcidin-25 (human, NT-biotin (biotin at the N-terminus)); assay: as above
T2 construct: also called NT-biotin hepcidin-25 tracer; NT-Bio Tracer
T2 peptide: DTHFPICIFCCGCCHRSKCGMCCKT

[3] = molecular target: T3, Human hepcidin peptide (hepcidin-25) (human); assay: antibody titering ELISA, hepcidin 100 ng/well on plate, HRP-goat anti-mouse IgG; antibody 12.5 ng/well
T3 construct: Synthetic 25 aa peptide; also called hep-25; Hep-25
T3 peptide: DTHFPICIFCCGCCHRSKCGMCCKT

[4] = molecular target: T1, K18-biotin hepcidin-25; assay: SPR, Biacore 3000, biotin peptide on neutravidin CM5 chip, MAb 583 injected at 24 µg/ml, 25 C
Method: (§1) Biotinylated hepcidin peptides (NT-biotin-hepcidin-25, K18-biotin-hepcidin-25 and K24-biotin-hepcidin-25) were immobilized in flow cells 2-4 (one peptide species per flow cell) by injecting individual peptides at a concentration of 200 μg/ml at a flow rate of 5 μl/min, for 20 min.
(§2) After 3 minutes, injection was stopped and dissociation was followed for 6 min. Regeneration was performed by injecting 10 mM glycine HCl, pH 1.5 at a flow rate of 10 μl/min for 1 min.

[5] = molecular target: T4, K24-biotin hepcidin-25 (human, K24-biotin (biotin on Lys 24)); assay: as above
T4 construct: also called K24-biotin hepcidin-25 tracer
T4 peptide: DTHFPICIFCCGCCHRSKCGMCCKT
Method: as §1, §2

[6] = molecular target: T2, NT-biotin hepcidin-25; assay: as above
Method: as §1, §2

[7] = molecular target: T3, Human hepcidin peptide (hepcidin-25); assay: antibody titering ELISA, hepcidin 100 ng/well on plate, HRP-goat anti-mouse IgG; antibody 100 ng/well
[8] = molecular target: T3, Human hepcidin peptide (hepcidin-25); assay: antibody titering ELISA, hepcidin 100 ng/well on plate, HRP-goat anti-mouse IgG; antibody 50 ng/well
[9] = molecular target: T1, K18-biotin hepcidin-25; assay: SPR, Biacore 3000, biotin peptide on neutravidin CM5 chip, MAb 583 injected at 24 µg/ml, 25 C; hepcidin-25 biotinylated at K18 (K18-biotin) on the chip; MAb 583 at 24 µg/ml
Method: as §1, §2

[10] = molecular target: T2, NT-biotin hepcidin-25; assay: SPR, Biacore 3000, biotin peptide on neutravidin CM5 chip, MAb 583 injected at 24 µg/ml, 25 C; hepcidin-25 biotinylated at the N-terminus (NT-biotin) on the chip; MAb 583 at 24 µg/ml
Method: as §1, §2

[11] = molecular target: T1, K18-biotin hepcidin-25; assay: SPR, Biacore, biotin peptide on neutravidin chip, MAb 583 at 5 µg/ml
[12] = molecular target: T2, NT-biotin hepcidin-25; assay: as above
[13] = molecular target: T4, K24-biotin hepcidin-25; assay: SPR, Biacore 3000, biotin peptide on neutravidin CM5 chip, MAb 583 injected at 24 µg/ml, 25 C; hepcidin-25 biotinylated at K24 (K24-biotin) on the chip; MAb 583 at 24 µg/ml
Method: as §1, §2

[14] = molecular target: T3, Human hepcidin peptide (hepcidin-25); assay: cell-based or functional assay
[15] = molecular target: T1, K18-biotin hepcidin-25; assay: SPR (Biacore 3000, CM5 chip, 25 °C): biotinylated peptide captured on immobilised neutravidin, MAb 583 injected at 5 µg/ml (33.5 nM per the table)
[16] = molecular target: T2, NT-biotin hepcidin-25; assay: as above
[17] = molecular target: T3, Human hepcidin peptide (hepcidin-25); assay: cell-based or functional assay
[18] = molecular target: T1, K18-biotin hepcidin-25; assay: SPR (Biacore 3000, CM5 chip, 25 °C): biotinylated peptide captured on immobilised neutravidin, MAb 583 injected at 5 µg/ml (33.5 nM per the table); column head 'Kd (1/s)'
[19] = molecular target: T2, NT-biotin hepcidin-25; assay: as above
[20] = molecular target: T5, Human hepcidin 10-25 peptide (human, also: oxidized peptide); assay: competition ELISA on MAb 583 coated plate, NT-biotin hepcidin-25 tracer
T5 construct: also called hep 10-25; Hep 10-25
T5 peptide: CCGCCHRSKCGMCCKT
Description: (§3) Competition was detected by streptavidin-HRP with the substrate tetramethylbenzidine; the color reaction was stopped with 0.5 N H₂SO₄ and the optical density of the solution read at 450 nm wavelength.
(§4) Binding of biotinylated hepcidin-25 analogs and detection of bound NT-biotin hepcidin-25 was used to detect relative degree of binding of each of the hepcidin peptides relative to hepcidin-25 (data not shown).

[21] = molecular target: T6, Mouse hepcidin-1 peptide (mouse); assay: as above
T6 construct: also called mouse hepcidin-25; murine hepcidin-1
T6 peptide: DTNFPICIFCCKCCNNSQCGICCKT
Description: as §3, §4

[22] = molecular target: T3, Human hepcidin peptide (hepcidin-25); assay: antibody titering ELISA, hepcidin 100 ng/well on plate, HRP-goat anti-mouse IgG; antibody 25 ng/well

B1: MAb 583 (antibody, V domains shown)
VH: QIQLVQSGPELKKPGETVKISCKASGYTFTNYGMNWVKQAPGKGLKWMGWINTYTGEPTYADDFKGRFAFSLETSASTAYLQINNLKNEDTATYFCTTYATSWYWGQG
VL: DIVLTQSPASLAVSLGQRATISCRASESVDSYGNSFMHWYQQKPGQPPKLLIYRASNLESGIPARFSGSGSRTDFTLTINPVEADDVATYYCQQSNEDLTFG
notes: Murine monoclonal, Protein A purified
- kon [1]: 1.88e+06 M⁻¹ s⁻¹
- kon [2]: 1.33e+06 M⁻¹ s⁻¹
- OD 450 nm [3]: 4 OD450
- Ka [4]: 1.14e+09 M⁻¹
- Req [4]: 126 RU
- kobs [4]: 0.0102 s⁻¹
- koff [4]: 5.59e-05 s⁻¹
- kon [4]: 63700 M⁻¹ s⁻¹
- Ka [5]: 1.8e+08 M⁻¹
- Req [5]: 63.1 RU
- kobs [5]: 0.0086 s⁻¹
- koff [5]: 0.000288 s⁻¹
- kon [5]: 52000 M⁻¹ s⁻¹
- Ka [6]: 1.94e+10 M⁻¹
- Req [6]: 78.8 RU
- kobs [6]: 0.00977 s⁻¹
- koff [6]: 3.15e-06 s⁻¹
- kon [6]: 61100 M⁻¹ s⁻¹
- OD 450 nm [7]: 4 OD450
- OD 450 nm [8]: 4 OD450
- Kd [9]: 0.878 nM
- Kd [10]: 0.0516 nM
- Kd [11]: ~0.0075 nM
- Kd [12]: ~0.018 nM
- Kd [13]: 5.54 nM
- IC50 (read off the curve); normalized ferritin (% of uninduced sample) of Fpn-GFP HEK cells, 37 nM hepcidin-25 present [14]: ~2 nM
- Ka [15]: 1.34e+11 M⁻¹
- Kd [15]: 0.00745 nM
- Ka [16]: 5.47e+10 M⁻¹
- Kd [16]: 0.0183 nM
- EC50 (read off the curve); GFP fluorescence (% of untreated sample) of Fpn-GFP HEK cells, 37 nM hepcidin-25 present [17]: ~2 nM
- koff [18]: 1.4e-05 s⁻¹
- koff [19]: 2.43e-05 s⁻¹
- binding result [20]: no binding (tested: up to 2000 ng/ml)
- binding result [21]: no binding
- OD 450 nm [22]: 4 OD450
